B1: Rho GTPase-activating protein 21 (Homo sapiens), Q5T5U3 (parent)
chain: MMATRRTGLSEGDGDKLKACEVSKNKDGKEQSETVSLSEDETFSWPGPKTVTLKRTSQGFGFTLRHFIVYPPESAIQFSYKDEENGNRGGKQRNRLEPMDTIFVKQVKEGGPAFEAGLCTGDRIIKVNGESVIGKTYSQVIALIQNSDTTLELSVMPKDEDILQVLQFTKDVTALAYSQDAYLKGNEAYSGNARNIPEPPPICYPWLPSAPSAMAQPVEISPPDSSLSKQQTSTPVLTQPGRAYRMEIQVPPSPTDVAKSNTAVCVCNESVRTVIVPSEKVVDLLSNRNNHTGPSHRTEEVRYGVSEQTSLKTVSRTTSPPLSIPTTHLIHQPAGSRSLEPSGILLKSGNYSGHSDGISSSRSQAVEAPSVSVNHYSPNSHQHIDWKNYKTYKEYIDNRRLHIGCRTIQERLDSLRAASQSTTDYNQVVPNRTTLQGRRRSTSHDRVPQSVQIRQRSVSQERLEDSVLMKYCPRSASQGALTSPSVSFSNHRTRSWDYIEGQDETLENVNSGTPIPDSNGEKKQTYKWSGFTEQDDRRGICERPRQQEIHKSFRGSNFTVAPSVVNSDNRRMSGRGVGSVSQFKKIPPDLKTLQSNRNFQTTCGMSLPRGISQDRSPLVKVRSNSLKAPSTHVTKPSFSQKSFVSIKDQRPVNHLHQNSLLNQQTWVRTDSAPDQQVETGKSPSLSGASAKPAPQSSENAGTSDLELPVSQRNQDLSLQEAETEQSDTLDNKEAVILREKPPSGRQTPQPLRHQSYILAVNDQETGSDTTCWLPNDARREVHIKRMEERKASSTSPPGDSLASIPFIDEPTSPSIDHDIAHIPASAVISASTSQVPSIATVPPCLTTSAPLIRRQLSHDHESVGPPSLDAQPNSKTERSKSYDEGLDDYREDAKLSFKHVSSLKGIKIADSQKSSEDSGSRKDSSSEVFSDAAKEGWLHFRPLVTDKGKRVGGSIRPWKQMYVVLRGHSLYLYKDKREQTTPSEEEQPISVNACLIDISYSETKRKNVFRLTTSDCECLFQAEDRDDMLAWIKTIQESSNLNEEDTGVTNRDLISRRIKEYNNLMSKAEQLPKTPRQSLSIRQTLLGAKSEPKTQSPHSPKEESERKLLSKDDTSPPKDKGTWRKGIPSIMRKTFEKKPTATGTFGVRLDDCPPAHTNRYIPLIVDICCKLVEERGLEYTGIYRVPGNNAAISSMQEELNKGMADIDIQDDKWRDLNVISSLLKSFFRKLPEPLFTNDKYADFIEANRKEDPLDRLKTLKRLIHDLPEHHYETLKFLSAHLKTVAENSEKNKMEPRNLAIVFGPTLVRTSEDNMTHMVTHMPDQYKIVETLIQHHDWFFTEEGAEEPLTTVQEESTVDSQPVPNIDHLLTNIGRTGVSPGDVSDSATSDSTKSKGSWGSGKDQYSRELLVSSIFAAASRKRKKPKEKAQPSSSEDELDNVFFKKENVEQCHNDTKEESKKESETLGRKQKIIIAKENSTRKDPSTTKDEKISLGKESTPSEEPSPPHNSKHNKSPTLSCRFAILKESPRSLLAQKSSHLEETGSDSGTLLSTSSQASLARFSMKKSTSPETKHSEFLANVSTITSDYSTTSSATYLTSLDSSRLSPEVQSVAESKGDEADDERSELISEGRPVETDSESEFPVFPTALTSERLFRGKLQEVTKSSRRNSEGSELSCTEGSLTSSLDSRRQLFSSHKLIECDTLSRKKSARFKSDSGSLGDAKNEKEAPSLTKVFDVMKKGKSTGSLLTPTRGESEKQEPTWKTKIADRLKLRPRAPADDMFGVGNHKVNAETAKRKSIRRRHTLGGHRDATEISVLNFWKVHEQSGERESELSAVNRLKPKCSAQDLSISDWLARERLRTSTSDLSRGEIGDPQTENPSTREIATTDTPLSLHCNTGSSSSTLASTNRPLLSIPPQSPDQINGESFQNVSKNASSAANAQPHKLSETPGSKAEFHPCL

Variants of: B1
Conditions: with arf1_mouse Arf1, P84078
Sequence of arf1_mouse Arf1, P84078 (P84078 whole entry): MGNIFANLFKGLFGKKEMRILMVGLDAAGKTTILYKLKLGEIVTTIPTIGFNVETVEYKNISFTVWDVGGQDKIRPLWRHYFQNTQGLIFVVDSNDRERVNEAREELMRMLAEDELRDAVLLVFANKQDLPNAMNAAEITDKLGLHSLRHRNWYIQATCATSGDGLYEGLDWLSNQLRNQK

effect of a mutation on the interaction	Variant
decreasing interaction	Y1000A

Variants of: B1
Conditions: with arf1_mouse Arf1, P84078
Remark: another data set of the same source

effect of a mutation on the interaction	Variant
decreasing interaction	I1054A

Source: IntAct's records for PubMed 17347647
